Data on one molecule can be found in US20150329626A1 (Eli Lilly, published 2015).

The target of assay [1] is human VEGFR2 on cells (ECFC, HMVEC-d) (human, UniProt P35968 20-1356). Kind of assay: cell-based or functional assay.
Assay [2] deals with T1, human Ang2 (human, UniProt O15123 19-496).
T1 sequence: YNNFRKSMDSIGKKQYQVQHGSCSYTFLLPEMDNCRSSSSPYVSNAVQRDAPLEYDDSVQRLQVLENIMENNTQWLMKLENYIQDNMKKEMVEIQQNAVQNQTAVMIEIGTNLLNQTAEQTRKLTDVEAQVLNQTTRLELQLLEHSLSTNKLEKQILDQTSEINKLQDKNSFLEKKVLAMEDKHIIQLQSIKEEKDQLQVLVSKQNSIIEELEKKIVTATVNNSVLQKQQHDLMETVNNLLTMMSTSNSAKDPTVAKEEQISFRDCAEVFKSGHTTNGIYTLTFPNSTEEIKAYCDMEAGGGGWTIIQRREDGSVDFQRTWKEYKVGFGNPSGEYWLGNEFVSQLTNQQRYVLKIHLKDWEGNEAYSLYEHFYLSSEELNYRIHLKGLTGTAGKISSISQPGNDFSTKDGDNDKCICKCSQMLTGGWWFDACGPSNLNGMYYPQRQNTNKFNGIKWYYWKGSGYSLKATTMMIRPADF
Kind of assay: cell-based or functional assay.

Assay [3] deals with T1, human Ang2. Kind of assay: competition ELISA: blocking of biotinylated human Ang2 binding to plate-coated human Tie2-Fc.
The target of assay [4] is T1, human Ang2. Description: Biacore SPR, 37 C, n = 3, compound captured on Protein A.
For a further assay, the target named is T2, dog Ang2 (dog, UniProt A0A8J8 19-495, limits assumed).
T2 sequence (looked up): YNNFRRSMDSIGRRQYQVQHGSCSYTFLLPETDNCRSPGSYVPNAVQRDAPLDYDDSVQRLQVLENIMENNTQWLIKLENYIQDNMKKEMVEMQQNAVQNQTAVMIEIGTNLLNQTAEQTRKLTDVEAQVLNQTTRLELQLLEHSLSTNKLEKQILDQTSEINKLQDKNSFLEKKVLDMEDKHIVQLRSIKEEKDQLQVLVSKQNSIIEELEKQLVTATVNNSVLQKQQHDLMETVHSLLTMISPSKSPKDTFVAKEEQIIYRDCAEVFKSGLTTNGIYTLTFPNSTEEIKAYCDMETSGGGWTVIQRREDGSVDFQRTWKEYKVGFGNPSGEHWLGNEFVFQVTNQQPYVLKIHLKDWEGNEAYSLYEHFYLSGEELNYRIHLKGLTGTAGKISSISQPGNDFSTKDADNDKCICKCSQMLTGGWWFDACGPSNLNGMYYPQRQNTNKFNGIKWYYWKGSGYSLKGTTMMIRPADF
Described as above.

In a further assay the target is T3, mouse Ang2 (mouse, UniProt O35608 19-496, limits assumed).
T3 sequence (looked up): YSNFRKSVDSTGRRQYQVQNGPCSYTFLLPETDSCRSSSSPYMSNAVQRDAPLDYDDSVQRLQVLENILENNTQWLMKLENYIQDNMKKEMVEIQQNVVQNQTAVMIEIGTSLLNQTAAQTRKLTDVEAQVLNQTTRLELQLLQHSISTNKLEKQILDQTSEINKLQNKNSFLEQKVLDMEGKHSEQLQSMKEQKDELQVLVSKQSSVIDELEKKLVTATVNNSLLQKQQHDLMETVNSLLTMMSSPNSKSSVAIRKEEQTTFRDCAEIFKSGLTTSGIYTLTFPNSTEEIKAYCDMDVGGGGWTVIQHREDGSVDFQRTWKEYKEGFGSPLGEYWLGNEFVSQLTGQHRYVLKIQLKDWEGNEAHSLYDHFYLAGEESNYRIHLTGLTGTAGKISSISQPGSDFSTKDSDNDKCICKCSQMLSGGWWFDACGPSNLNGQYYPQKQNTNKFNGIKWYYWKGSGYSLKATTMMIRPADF
Described as above.

Another assay deals with T4, rabbit Ang2 (rabbit, UniProt G1T9B3 19-496).
T4 sequence: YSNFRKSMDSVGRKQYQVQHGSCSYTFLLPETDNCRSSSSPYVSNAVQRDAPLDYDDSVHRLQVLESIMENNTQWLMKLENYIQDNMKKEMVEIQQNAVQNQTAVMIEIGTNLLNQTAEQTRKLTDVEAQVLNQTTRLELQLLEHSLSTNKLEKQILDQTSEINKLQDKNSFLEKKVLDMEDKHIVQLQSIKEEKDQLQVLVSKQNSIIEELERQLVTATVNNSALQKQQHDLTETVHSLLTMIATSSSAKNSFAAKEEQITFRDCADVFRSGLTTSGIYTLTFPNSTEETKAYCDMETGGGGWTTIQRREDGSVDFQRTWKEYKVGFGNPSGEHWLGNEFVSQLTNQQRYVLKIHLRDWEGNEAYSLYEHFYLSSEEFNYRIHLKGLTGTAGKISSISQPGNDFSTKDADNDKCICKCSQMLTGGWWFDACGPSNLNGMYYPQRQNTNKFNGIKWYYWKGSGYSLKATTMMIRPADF
The description is as above.

Chain of human VEGFR2 on cells (ECFC, HMVEC-d) (P35968 20-1356): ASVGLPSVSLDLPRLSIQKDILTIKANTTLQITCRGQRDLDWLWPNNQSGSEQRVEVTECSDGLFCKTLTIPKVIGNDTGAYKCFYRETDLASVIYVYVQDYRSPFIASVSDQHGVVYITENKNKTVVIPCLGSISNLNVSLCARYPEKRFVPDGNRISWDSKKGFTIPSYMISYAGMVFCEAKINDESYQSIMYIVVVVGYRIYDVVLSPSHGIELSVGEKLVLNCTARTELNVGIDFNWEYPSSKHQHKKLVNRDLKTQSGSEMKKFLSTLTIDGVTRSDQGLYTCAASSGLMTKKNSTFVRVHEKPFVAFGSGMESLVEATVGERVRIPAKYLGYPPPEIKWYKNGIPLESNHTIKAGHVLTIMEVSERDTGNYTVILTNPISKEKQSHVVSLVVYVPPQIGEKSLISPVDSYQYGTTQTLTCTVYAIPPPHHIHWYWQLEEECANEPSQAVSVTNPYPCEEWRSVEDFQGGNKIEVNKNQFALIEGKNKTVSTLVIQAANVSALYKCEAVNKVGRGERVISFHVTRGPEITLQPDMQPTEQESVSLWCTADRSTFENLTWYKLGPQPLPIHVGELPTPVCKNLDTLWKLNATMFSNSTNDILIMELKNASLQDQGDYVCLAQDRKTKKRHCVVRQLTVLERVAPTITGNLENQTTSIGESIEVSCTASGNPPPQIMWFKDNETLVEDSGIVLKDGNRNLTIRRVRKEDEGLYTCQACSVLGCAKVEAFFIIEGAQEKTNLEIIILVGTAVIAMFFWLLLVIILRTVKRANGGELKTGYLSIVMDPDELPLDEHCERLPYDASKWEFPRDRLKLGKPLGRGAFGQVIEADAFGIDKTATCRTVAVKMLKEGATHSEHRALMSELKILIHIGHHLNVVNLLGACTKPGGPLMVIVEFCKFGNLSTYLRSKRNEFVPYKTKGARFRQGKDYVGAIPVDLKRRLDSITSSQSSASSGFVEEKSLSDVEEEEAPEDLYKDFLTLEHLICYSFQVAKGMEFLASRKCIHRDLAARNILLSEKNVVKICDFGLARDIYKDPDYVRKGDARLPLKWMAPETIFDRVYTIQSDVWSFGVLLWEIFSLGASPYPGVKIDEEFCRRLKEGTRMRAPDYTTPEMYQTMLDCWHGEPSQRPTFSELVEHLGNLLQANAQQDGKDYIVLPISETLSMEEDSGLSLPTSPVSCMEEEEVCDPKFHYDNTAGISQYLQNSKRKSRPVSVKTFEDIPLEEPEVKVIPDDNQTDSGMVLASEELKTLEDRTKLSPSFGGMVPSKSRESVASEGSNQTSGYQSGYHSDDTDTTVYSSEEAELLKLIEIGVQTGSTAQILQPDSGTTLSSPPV

B1: Compound F (bispecific antibody, human IgG4 S228P, kappa, F234A L235A)
heavy: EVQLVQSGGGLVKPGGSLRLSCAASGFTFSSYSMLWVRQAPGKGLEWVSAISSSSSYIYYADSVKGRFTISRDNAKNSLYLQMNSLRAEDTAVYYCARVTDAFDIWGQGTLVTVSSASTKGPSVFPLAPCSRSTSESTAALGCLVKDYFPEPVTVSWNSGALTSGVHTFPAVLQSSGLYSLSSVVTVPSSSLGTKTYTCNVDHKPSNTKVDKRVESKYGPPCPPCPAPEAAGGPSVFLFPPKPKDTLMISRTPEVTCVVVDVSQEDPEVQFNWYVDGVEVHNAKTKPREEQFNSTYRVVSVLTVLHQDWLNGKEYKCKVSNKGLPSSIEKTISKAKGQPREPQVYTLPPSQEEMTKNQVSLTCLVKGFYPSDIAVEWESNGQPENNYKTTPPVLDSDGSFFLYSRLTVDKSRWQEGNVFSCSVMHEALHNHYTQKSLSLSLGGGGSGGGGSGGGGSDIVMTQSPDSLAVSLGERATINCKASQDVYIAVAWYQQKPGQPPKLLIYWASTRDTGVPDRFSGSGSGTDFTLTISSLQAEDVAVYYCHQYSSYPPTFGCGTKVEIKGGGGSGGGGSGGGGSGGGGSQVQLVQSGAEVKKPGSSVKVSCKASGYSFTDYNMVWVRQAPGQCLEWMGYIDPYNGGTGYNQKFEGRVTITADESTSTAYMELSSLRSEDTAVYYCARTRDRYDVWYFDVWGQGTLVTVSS
light: DIQMTQSPSSVSASVGDRVTITCRASRGIDNWLTWYQQKPGKAPKLLIYEASSLQSGVPSRFSGSGSGTDFTLTISSLQPEDFATYYCQQAKAFPPTFGGGTKVDIKRTVAAPSVFIFPPSDEQLKSGTASVVCLLNNFYPREAKVQWKVDNALQSGNSQESVTEQDSKDSTYSLSSTLTLSKADYEKHKVYACEVTHQGLSSPVTKSFNRGEC
notes: also called Cmpd F
Regarding B1, in assay [1], the “inhibition of human VEGF165-induced proliferation of HMVEC-d (IC50)” value was determined as 19.2 nM and the “inhibition of human VEGF-induced cord formation in ADSC/ECFC co-culture (IC50)” value was found to be 6.04 nM. Also, the “inhibition of human Ang2 induced phospho-Tie2 in CHO-Tie2 cells (IC50)” value with human Ang2 [2] was found to be 0.587 nM. Besides, the IC50 (as a rule, the concentration that gives 50% inhibition) with human Ang2 [3] worked out at 0.034 nM. In the assay with human Ang2 [4], the Kd (in general, the equilibrium constant for the complex coming apart) stood at 0.1 nM; the koff (usually the rate constant with which the complex falls apart) amounted to 7e-05 s⁻¹; the kon (in general, the rate constant with which the complex forms) came out at 820000 M⁻¹ s⁻¹. In addition, in the assay with dog Ang2, the equilibrium dissociation constant (Kd) is 0.24 nM, the koff was 9e-05 s⁻¹ and the kon was 360000 M⁻¹ s⁻¹. In the assay with mouse Ang2, the affinity, expressed as Kd, was 0.23 nM; the koff worked out at 8e-05 s⁻¹; the association rate constant (kon) stood at 360000 M⁻¹ s⁻¹. Further, in the assay with rabbit Ang2, binding was put at a Kd of 0.42 nM, the off-rate (koff) was found to be 0.00011 s⁻¹ and the kon came to 270000 M⁻¹ s⁻¹.
